In the test the test system is hESCs. Description: Activin A alone in serum-free medium, pancreatic cell differentiation. The class given is cell-based, human. Particulars: Activin A at 5 ng/ml, 50 ng/ml, or 100 ng/ml in serum-free medium. From the text: Activin is a member of the TGF-β superfamily and has various effects on diverse biological systems (Abe Y, et al. Growth Factors 2004 June; 22(2):105-10; herein incorporated by reference in its entirety). Activin A has been reported to have a role in the induction of definitive endoderm from hESCs (D'Amour, K. A., et al. (2005); herein incorporated by reference in its entirety).

B1: Activin A: member of the TGF-β superfamily (protein, UniProt P08476 311-426, looked up)
Inhibin beta A chain: GLECDGKVNICCKKQFFVSFKDIGWNDWIIAPSGYHANYCEGECPSHIAGTSGSSLSFHSTVINHYRMRGHSPFANLKSCCVPTKLRPMSMLYYDDGQNIIKKDIQNMIVEECGCS
modifications: Inhibin beta A chain
notes: member of the TGF-β superfamily
As to B1, the “induction of pancreatic cell differentiation” value is given as “cannot induce pancreatic cell differentiation”.

The record behind these values is patent US10138466B2, “Compositions and methods for differentiating stem cells into cell populations comprising beta-like cells” (REGENERATIVE MEDICAL SOLUTIONS, INC., priority 2014, dated 2018).
